Data reported in patent publication US20100184651A1 (DABUR PHARMA, published 2010).

Biological target: T1, VPAC1 receptor (human, UniProt P32241 31-457)
T1 sequence (looked up): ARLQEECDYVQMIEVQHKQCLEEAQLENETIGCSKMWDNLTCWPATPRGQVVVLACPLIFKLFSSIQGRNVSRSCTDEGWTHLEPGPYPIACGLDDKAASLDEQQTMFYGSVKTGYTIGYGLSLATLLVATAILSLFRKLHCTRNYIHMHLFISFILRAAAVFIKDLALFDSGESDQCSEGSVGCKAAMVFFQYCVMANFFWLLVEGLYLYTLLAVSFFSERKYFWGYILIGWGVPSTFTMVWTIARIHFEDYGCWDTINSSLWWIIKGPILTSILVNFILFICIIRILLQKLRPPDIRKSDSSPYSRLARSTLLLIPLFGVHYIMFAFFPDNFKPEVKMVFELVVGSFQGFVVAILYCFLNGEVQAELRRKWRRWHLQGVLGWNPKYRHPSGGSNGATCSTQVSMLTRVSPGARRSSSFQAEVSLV
Experiment: cell-based or functional assay

B1: VIP-BH3 BID fusion protein (other)
chain: MHSDAVFTDNYTRLRKQMAVKKYLNSILNGSSLLIARRMPNFNEDIIRNIARHLAQVGDSMDRLEHHHHHH
- IC50, cytotoxicity on A549 cells (MTT assay, 24 h): ~5 µM
- IC50, cytotoxicity on HT29 cells (MTT assay, 24 h): ~15 µM
